Data taken from US20240352128A1 (published 2024).
Like-named read-outs stand apart in the source and are kept apart here.

Experiments:
Assay in all cases: FACS
[1] = molecular target: T1, human CD16a on HEK293 cells expressing human CD16a (constructed by Genscript) (human, UniProt P08637 17-254)
[2] = molecular target: T2, human CD16b as FACS target of FIGS. 6B-10B (human, UniProt O75015 17-200)
T2 chain: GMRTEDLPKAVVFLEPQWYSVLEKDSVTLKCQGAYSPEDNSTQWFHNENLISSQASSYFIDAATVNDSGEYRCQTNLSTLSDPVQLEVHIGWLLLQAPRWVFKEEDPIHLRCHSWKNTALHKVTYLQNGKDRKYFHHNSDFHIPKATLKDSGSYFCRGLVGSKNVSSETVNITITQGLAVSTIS

[3] = molecular target: T3, cynomolgus monkey CD16a on HEK293 cells expressing cyno monkey CD16a (constructed by Genscript) (cynomolgus monkey, UniProt Q8SPW2 17-254)
T3 chain: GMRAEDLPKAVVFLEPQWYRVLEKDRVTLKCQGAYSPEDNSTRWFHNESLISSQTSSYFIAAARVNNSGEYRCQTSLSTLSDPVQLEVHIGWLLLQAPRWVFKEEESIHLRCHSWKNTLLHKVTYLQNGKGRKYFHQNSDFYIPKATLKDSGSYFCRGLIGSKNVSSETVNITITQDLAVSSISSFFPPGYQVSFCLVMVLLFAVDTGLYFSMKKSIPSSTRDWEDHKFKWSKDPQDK

[4] = molecular target: T1, human CD16a on HEK293 cells expressing …; remark: listed apart in the source
[5] = molecular target: T2, human CD16b as FACS target of FIGS. …

T1 sequence (P08637 17-254): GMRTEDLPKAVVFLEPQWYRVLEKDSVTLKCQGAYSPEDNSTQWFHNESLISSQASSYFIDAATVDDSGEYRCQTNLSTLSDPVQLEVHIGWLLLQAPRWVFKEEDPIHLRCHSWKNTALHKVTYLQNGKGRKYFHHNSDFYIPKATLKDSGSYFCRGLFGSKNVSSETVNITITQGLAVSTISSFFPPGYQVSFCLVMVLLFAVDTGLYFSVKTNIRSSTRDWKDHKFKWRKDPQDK

B1: pTT5-AR8820-3.1 mIgG1Fc (Fc fusion)
heavy: EVQLVESGGGLVQPGGSLRLSCAASGSSISRYAMAWYRQAPGKGRELVAVVRITGSPIYADFVGGRFTISRDNAKNSLYLQMNSLRAEDTAVYYCATGNFNTYTRRYSPSETWGQGTLVTVSSVPRDCGCKPCICTVPEVSSVFIFPPKPKDVLTITLTPKVTCVVVDISKDDPEVQFSWFVDDVEVHTAQTQPREEQFNSTFRSVSELPIMHQDWLNGKEFKCRVNSAAFPAPIEKTISKTKGRPKAPQVYTIPPPKEQMAKDKVSLTCMITDFFPEDITVEWQWNGQPAENYKNTQPIMDTDGSYFVYSKLNVQKSNWEAGNTFTCSVLHEGLHNHHTEKSLSHSPGK
Which results are given for B1?
EC50 [1]: 0.419 nM; EC50 [2]: 62.3 nM; EC50 [3]: 0.738 nM

B2: pTT5-AR8820-1.2mIgG1Fc (Fc fusion)
heavy: QVQLVESGGGVVQPGGSLRLSCAASGSSISRYAMAWYRQAPGKGREWVAVVRITGSPIYADFVGGRFTISRDNSKNTLYLQMNSLRAEDTAVYYCATGNFNTYTRRYSPSETWGKGTTVTVSSVPRDCGCKPCICTVPEVSSVFIFPPKPKDVLTITLTPKVTCVVVDISKDDPEVQFSWFVDDVEVHTAQTQPREEQFNSTFRSVSELPIMHQDWLNGKEFKCRVNSAAFPAPIEKTISKTKGRPKAPQVYTIPPPKEQMAKDKVSLTCMITDFFPEDITVEWQWNGQPAENYKNTQPIMDTDGSYFVYSKLNVQKSNWEAGNTFTCSVLHEGLHNHHTEKSLSHSPGK
Which results are given for B2?
EC50 [4]: 0.47 nM; EC50 [5]: ~497 nM; EC50 [3]: 0.914 nM

B3: pTT5-AR8820-3.3 mIgG1Fc (Fc fusion)
VHH-Fc: EVQLVESGGGLVQPGGSLRLSCAASGSSISRYAMAWYRQAPGKGRELVAVVRITGSPIYADFVGGRFTISRDNAKNSLYLQMNSLRAEDTAVYYCNTGNFNTYTRRYSPSETWGQGTLVTVSSVPRDCGCKPCICTVPEVSSVFIFPPKPKDVLTITLTPKVTCVVVDISKDDPEVQFSWFVDDVEVHTAQTQPREEQFNSTFRSVSELPIMHQDWLNGKEFKCRVNSAAFPAPIEKTISKTKGRPKAPQVYTIPPPKEQMAKDKVSLTCMITDFFPEDITVEWQWNGQPAENYKNTQPIMDTDGSYFVYSKLNVQKSNWEAGNTFTCSVLHEGLHNHHTEKSLSHSPGK
What does the source list for B3?
EC50 [1]: 0.452 nM; EC50 [2]: 61.8 nM; EC50 [3]: 0.751 nM
